Experimental findings from patent US20250108100A1, “C-TERMINAL FRAGMENT OF APOLIPOPROTEIN E AND APPLICATION THEREOF IN INHIBITING y-SECRETASE ACTIVITY” (SYNPHATEC (SHANGHAI) BIOPHARMACEUTICAL TECHNOLOGY CO., LTD., priority 2022, published 2025) are described below.

In this experiment the test system is primary cultured mouse hippocampal or cortical neurons. Put plainly: Endogenous Aβ40 in primary cultured mouse cortical or hippocampal neurons (lentivirus, ELISA). It is filed as cell-based. The note with it: for endogenously produced Aβ40: lentivirus. Here is the method: Primary cultured neurons were derived from the cortex or hippocampus of 16-day embryonic mice. The mouse cortex or hippocampus was obtained under a stereoscope, and was digested at 37° C. for 10 minutes with 20 U/ml papain (Worthington Company). After digestion, the neurons that exist in single-cell form were seeded with 100,000 neurons per well (24-well plate); the neurons were cultured in the neuron culture medium (Neurobasal medium; ThermoFisher Company) containing 2% B27 (ThermoFisher Company) and 1% penicillin/streptomycin; the fresh culture medium was changed once a week.
The experiment was performed according to the standard procedure in the ELISA analysis kit of Invitrogen Company. • a) The target protein was expressed in HEK 293T cell line. Cells were subcultured one day before transfection, and transfection was performed when the degree of cell adhesion reached 70%-80%. The transfection reagent was lipofectamine2000 (ThermoFisher). • b) 4-6 hours post transfection, medium were replaced with fresh cell culture medium. • c) 36-48 hours post transfection, the cell culture medium was collected, and then the ELISA process was performed or the cell culture medium was frozen in a −80° C. refrigerator. • d) 50 μl of standard samples and experimental samples were added to each well of the 96-well plate. • e) 50 μl of human-derived Aβ40 or Aβ42 or mouse-derived Aβ40 detection antibody was added to each well of the 96-well plate. • f) The above samples were shaken gently and placed at room temperature for 3 hours. • g) The liquid in the well were removed, and the plate was washed 4 times with 1× wash buffer. • h) 100 μl of the buffer containing 1× anti-Rabbit IgG HRP was added. • i) The plate was shaken gently and placed at room temperature for […]. • j) The liquid in the well were removed, and the well was washed 4 times with 1× wash buffer. • k) 100 μl of Stabilized Chromogen was added to each well, and the plate was placed in the dark for 30 minutes at room temperature. • l) 100 μl of Stop Solution was added to each well. • m) The absorbance at 450 nm was measured with a microplate reader. 2.4 qRT-PCR
• a) Construction of lentivirus expression plasmids, lentivirus-GFP and lentivirus-ApoE CT, which can be specifically expressed in neurons. • b) The lentivirus vectors were cotransfected with coat protein vectors (PSPAX2 and PMD2G) in HEK 293T cell line. Cells were subcultured one day before transfection, and transfection was performed when the degree of cell adhesion reached 70%-80%. […]
48 hours after transfection of HEK 293T cells and N2A cells, or 4.5 days after lentivirus infection of neurons, media and lysates were collected. Aβ40 and Aβ42 in the culture medium and cell lysates were detected by an Aβ ELISA kit as indicated in the protocol. […]

B1: ApoE CT: C-terminal fragment of ApoE, positions 216-299 of SEQ ID NO: 12; SEQ ID NO: 33 (protein)
chain: ARMEEMGSRTRDRLDEVKEQVAEVRAKLEEQAQQIRLQAEAFQARLKSWFEPLVEDMQRQWAGLVEKVQAAVGTSAAPVPSDNH
For the molecule B1, for the setting “mouse cortical and hippocampal neurons, lentiviral infection, vs GFP controls”, the “reduction in endogenous Aβ40” value is listed as 30%. Also, the “endogenously produced Aβ40” value (primary cultured mouse cortical neurons) is “about 73 % of the control group”; the “endogenously produced Aβ40” value (primary cultured mouse hippocampal neurons) was “about 71 % of the control group”; the “endogenously produced Aβ40” value (primary cultured mouse neurons, vs GFP control) is “can reduce the endogenous production of Aβ40”.
